The experiment concerns the target Mouse SR-BI CGG mutant (positions 321-323) (mouse) (UniProt Q61009). Nature of the experiment: radioligand binding.

With “Human high density lipoprotein (HDL), labeled with 125I (complex)”, the reduction in binding compared to the WT receptor is 20%.

For the origin of these results see publication PMC3566775.
